Laboratory results reported in patent US20200087373A1 (UNIVERSITY OF COPENHAGEN, published 2020).
Ends that are not written are not given here. * marks the point of attachment. Palmitoyl = CCCCCCCCCCCCCCCC(=O)*; Lauroyl = CCCCCCCCCCCC(=O)*

T1: human GIP receptor (human, UniProt P48546 22-466)
T1 construct: whole, on cells; also called hGIPR
T1 sequence (looked up): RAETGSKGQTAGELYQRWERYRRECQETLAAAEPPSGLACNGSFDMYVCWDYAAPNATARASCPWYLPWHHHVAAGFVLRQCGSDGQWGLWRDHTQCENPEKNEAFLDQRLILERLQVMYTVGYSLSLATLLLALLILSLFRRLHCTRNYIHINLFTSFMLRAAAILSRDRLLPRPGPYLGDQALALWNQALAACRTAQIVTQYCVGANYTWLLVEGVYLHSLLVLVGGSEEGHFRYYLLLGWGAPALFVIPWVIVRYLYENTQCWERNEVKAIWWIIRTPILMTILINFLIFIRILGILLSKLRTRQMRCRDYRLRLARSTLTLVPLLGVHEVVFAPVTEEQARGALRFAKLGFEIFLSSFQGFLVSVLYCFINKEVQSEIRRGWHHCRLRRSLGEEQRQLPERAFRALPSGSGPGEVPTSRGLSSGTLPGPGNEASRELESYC

B1: AT118 [hGIP(5-30)NH2-C12/5] (peptide)
peptide: Lauroyl-TFISDYSIAMDKIHQQDFVNWLLAQK-NH2
SMILES: CCCCCCCCCCCC(=O)N[C@H](C(=O)N[C@@H](Cc1ccccc1)C(=O)N[C@H](C(=O)N[C@@H](CO)C(=O)N[C@@H](CC(=O)O)C(=O)N[C@@H](Cc1ccc(O)cc1)C(=O)N[C@@H](CO)C(=O)N[C@H](C(=O)N[C@@H](C)C(=O)N[C@@H](CCSC)C(=O)N[C@@H](CC(=O)O)C(=O)N[C@@H](CCCCN)C(=O)N[C@H](C(=O)N[C@@H](Cc1c[nH]cn1)C(=O)N[C@@H](CCC(N)=O)C(=O)N[C@@H](CCC(N)=O)C(=O)N[C@@H](CC(=O)O)C(=O)N[C@@H](Cc1ccccc1)C(=O)N[C@H](C(=O)N[C@@H](CC(N)=O)C(=O)N[C@@H](Cc1c[nH]c2ccccc12)C(=O)N[C@@H](CC(C)C)C(=O)N[C@@H](CC(C)C)C(=O)N[C@@H](C)C(=O)N[C@@H](CCC(N)=O)C(=O)N[C@@H](CCCCN)C(N)=O)C(C)C)[C@@H](C)CC)[C@@H](C)CC)[C@@H](C)CC)[C@@H](C)O
B2: AT133 [hGIP(5-30)NH2[K16R; H18K; K30R]-C16/5] (peptide)
peptide: Palmitoyl-TFISDYSIAMDRIKQQDFVNWLLAQR-NH2
SMILES: CCCCCCCCCCCCCCCC(=O)N[C@H](C(=O)N[C@@H](Cc1ccccc1)C(=O)N[C@H](C(=O)N[C@@H](CO)C(=O)N[C@@H](CC(=O)O)C(=O)N[C@@H](Cc1ccc(O)cc1)C(=O)N[C@@H](CO)C(=O)N[C@H](C(=O)N[C@@H](C)C(=O)N[C@@H](CCSC)C(=O)N[C@@H](CC(=O)O)C(=O)N[C@@H](CCCNC(=N)N)C(=O)N[C@H](C(=O)N[C@@H](CCCCN)C(=O)N[C@@H](CCC(N)=O)C(=O)N[C@@H](CCC(N)=O)C(=O)N[C@@H](CC(=O)O)C(=O)N[C@@H](Cc1ccccc1)C(=O)N[C@H](C(=O)N[C@@H](CC(N)=O)C(=O)N[C@@H](Cc1c[nH]c2ccccc12)C(=O)N[C@@H](CC(C)C)C(=O)N[C@@H](CC(C)C)C(=O)N[C@@H](C)C(=O)N[C@@H](CCC(N)=O)C(=O)N[C@@H](CCCNC(=N)N)C(N)=O)C(C)C)[C@@H](C)CC)[C@@H](C)CC)[C@@H](C)CC)[C@@H](C)O
B3: AT134 [hGIP(5-30)NH2[K16R; H18K; K30R]-C16/18] (peptide)
peptide: TFISDYSIAMDRIK(Palmitoyl)QQDFVNWLLAQR-NH2
modifications: N-terminus assumed
SMILES: CCCCCCCCCCCCCCCC(=O)NCCCC[C@H](NC(=O)[C@@H](NC(=O)[C@H](CCCNC(=N)N)NC(=O)[C@H](CC(=O)O)NC(=O)[C@H](CCSC)NC(=O)[C@H](C)NC(=O)[C@@H](NC(=O)[C@H](CO)NC(=O)[C@H](Cc1ccc(O)cc1)NC(=O)[C@H](CC(=O)O)NC(=O)[C@H](CO)NC(=O)[C@@H](NC(=O)[C@H](Cc1ccccc1)NC(=O)[C@@H](N)[C@@H](C)O)[C@@H](C)CC)[C@@H](C)CC)[C@@H](C)CC)C(=O)N[C@@H](CCC(N)=O)C(=O)N[C@@H](CCC(N)=O)C(=O)N[C@@H](CC(=O)O)C(=O)N[C@@H](Cc1ccccc1)C(=O)N[C@H](C(=O)N[C@@H](CC(N)=O)C(=O)N[C@@H](Cc1c[nH]c2ccccc12)C(=O)N[C@@H](CC(C)C)C(=O)N[C@@H](CC(C)C)C(=O)N[C@@H](C)C(=O)N[C@@H](CCC(N)=O)C(=O)N[C@@H](CCCNC(=N)N)C(N)=O)C(C)C

What was measured:
human GIP receptor [1] = biological target: T1, human GIP receptor; experiment: 125I-hGIP competition binding, COS-7 cells expressing hGIPR;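 note: nonspecific binding taken as radioligand bound by untransfected cells, binding buffer with or without 2% HSA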
Procedure: (§1) After incubation, the cells were washed twice in ice-cold binding buffer (+/−2% HSA) and lysed using 200 mM NaOH with 1% SDS for 30 min. Nonspecific binding was determined as the binding of radioactive ligand to untransfected cells.

human GIP receptor [2] = biological target: T1, human GIP receptor; experiment: 125I-hGIP competition binding, COS-7/hGIPR, 0.1% casein;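 note: nonspecific binding defined as radioligand binding measured on untransfected cells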
Procedure: as §1

human GIP receptor [3] = biological target: T1, human GIP receptor; experiment: IC50 with 2% HSA over IC50 with 0.1% casein, 125I-hGIP competition, COS-7/hGIPR
Procedure: as §1

human GIP receptor [4] = biological target: T1, human GIP receptor; experiment: 125I-hGIP competition binding, COS-7/hGIPR, 2% HSA;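 note: nonspecific binding defined as radioligand binding to untransfected cells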
Procedure: as §1

| Binder | IC50 (human GIP receptor [1]) | log IC50 (human GIP receptor [1]) | IC50 (human GIP receptor [2]) | logIC50 (human GIP receptor [2]) | Fold change HSA (2%)/Casein (0.1%) (human GIP receptor [3]) | IC50 (human GIP receptor [4]) | logIC50 (human GIP receptor [4]) |
| --- | --- | --- | --- | --- | --- | --- | --- |
| B1 | 0.102 µM | -7 log M | 0.115 µM | -6.9 log M | 7.7 fold | 0.881 µM | -6.1 log M |
| B2 | 1.72 µM | -5.8 log M | 1.72 µM | -5.8 log M | 1.3 fold | 2.21 µM | -5.7 log M |
| B3 | 0.882 µM | -6.1 log M | 0.882 µM | -6.1 log M | 5.5 fold | 4.89 µM | -5.3 log M |
